Several values for one entry are separate records, joined by “and”; a condition that tells them apart may be missing. Equal values may be shown once.

Data on two substances can be found in PMC7660911.

This test concerns the target pVHL172-BirA(R118G)-HA fusion protein (human) (UniProt P40337). The experiment in a line: proximity labelling; BioID with truncated VHL-BirA constructs in HeLa and 786-O cells; blots quantified as biotinylated prefoldin / pVHL expression level, full-length VHL213-BirA set as 1 (Fig 1C).

Consider “Prefoldin subunit 1 (from UniProt O60925 1-122) (natural protein)”, for which the fold lower binding than with the exons 2&3 version is 4 fold and 5 fold. Take “Prefoldin subunit 3 (from UniProt P61758-1 1-197) (natural protein)”: the fold lower binding than with the exons 2&3 version is 4 fold and 5 fold.
